This assay addresses T1, HLA-A*02:01 class I complex (conditional p*HLA*02:01, biotinylated heavy chain with beta2-microglobulin) (human, biotinylated heavy chain).
T1 construct: UV-labile peptide p* is cleaved and exchanged for the test peptide; also called HLA 2.1
Kind of assay: UV peptide exchange, HLA class I ELISA, % of Pos peptide. (In general: In an ELISA, binding on a coated surface is turned into a signal by an enzyme label.)
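Further: Streptavidin-captured HLA complexes after exchange detected via HRP anti-human B2M antibody, absorbance read, colour scales with intact complex, normalized to exchange control peptide as 100%.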

B1: TP53_S127F6 mimic peptide SLTCTYFPV (peptide)
peptide: SLTCTYFPV
notes: also called M212
As to B1, the Average % was determined as 95.5%, the “Exch I (%)” value worked out at 93.7% and the “Exch II (%)” value was 97.2%.

B2: TP53_S127F8 mimic peptide SLTCTYFPL (peptide)
peptide: SLTCTYFPL
notes: also called M214
On to B2, for which the Average % amounted to 70.8%, the “Exch I (%)” value is 69.9% and the “Exch II (%)” value was found to be 71.6%.

The values above are taken from patent US20220194999A1 (Janssen / Centocor, published 2022).
